In the supplement of paper PMC10126150:
± gives the standard deviation of the averaged measurements.

system: ATP; assay: switch fluorescence ratio, 500 uM ATP over buffer (Cy3 cluster intensity, sum of 5 cycles each) (fold (ratio)); higher = stronger signal-on switching upon ATP binding; sequences stand for … in TCGTCGGCAGCGTCAGATGTGTATAAGAGACAGTTTTTTTTTTTTTTTTTTTTTTTTT…TC; conditions: aptamer strand: ATP DNA aptamer (quencher-CACCTGGGGGAGTATTGCGGAGGAAGG + anchor), 100 nM annealed; ATP concentration: 500 uM
Method in brief: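 After annealing to 100 nM quencher-labelled ATP aptamer, Cy3-labelled switching-strand clusters on a modified Illumina MiSeq flow-cell were imaged in selection buffer. A second image followed after 15 min with 500 uM ATP at 22 °C, and five such buffer/ATP cycles were done, each separated by NaOH stripping and re-annealing. The fluorescence ratio, averaged per switch-domain sequence, is summed target-cycle over summed buffer-cycle Cy3 intensity per cluster, with clusters outside 100-1000 RFU excluded.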
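Further: ATP exposure 15 min at 22 °C before imaging.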

Sequence | switch fluorescence ratio
CTCGTGTTCG | 0.984 ± 0.013
CTCGTGTTGG | 0.989 ± 0.018
CTCGTTCCTG | 1 ± 0.031
CTCGTTCTTT | 1 ± 0.031
CTCTAACAGC | 1.08 ± 0.022
CTCTAACGG | 0.982 ± 0.089
CTCTAAGGC | 1.094 ± 0.0084
CTCTATATTG | 1.008 ± 0.0073
CTCTATTGAT | 0.997 ± 0.017
CTCTATTTGA | 0.977 ± 0.016
CTCTCGAAGC | 1.1577 ± 0.0001
CTCTGAGAGG | 0.9719 ± 0.0043
CTCTGATAGC | 1.23 ± 0.013
CTCTGTGACG | 1.03 ± 0.012
CTCTGTGGTG | 1.02 ± 0.048
CTCTGTGTTT | 0.9924 ± 0.00037
CTCTGTTGTG | 0.961 ± 0.012
CTCTTAGTTT | 0.999 ± 0.023
CTCTTGGGCT | 0.971 ± 0.089
CTCTTGTATC | 1.05 ± 0.063
CTCTTTGCAG | 1.086 ± 0.0044
CTGAAGAATT | 1.03 ± 0.015
CTGACCTGTA | 1.093 ± 0.0021
CTGACGTGCT | 1.062 ± 0.004
CTGAGCAAG | 2.34 ± 0.28
CTGAGCGATT | 1.41 ± 0.032

Sequence | switch fluorescence ratio
CTGAGCTTCG | 1 ± 0.0032
CTGAGGGGTG | 1.01 ± 0.037
CTGAGGTGGT | 0.991 ± 0.046
CTGAGGTTAT | 1.04 ± 0.038
CTGAGTATGC | 1.05 ± 0.026
CTGAGTTTAT | 0.997 ± 0.023
CTGATACATT | 0.9715 ± 0.0069
CTGATACTGG | 0.997 ± 0.045
CTGATAGGAT | 1.22 ± 0.37
CTGATGCCGT | 1.08 ± 0.057
CTGATGCGGG | 1.06 ± 0.062
CTGATGTGGG | 0.964 ± 0.015
CTGATTTTCC | 1.01 ± 0.061
CTGCAAGCGG | 1.28 ± 0.057
CTGCAGGGGG | 1.05 ± 0.044
CTGCAGTTGA | 1.04 ± 0.024
CTGCATGGTT | 1.01 ± 0.016
CTGCCCTATT | 1 ± 0.023
CTGCGACTGT | 1.026 ± 0.0099
CTGCGACTTT | 1.02 ± 0.035
CTGCGAGGAT | 1.01 ± 0.034
CTGCGGGAGG | 1.008 ± 0.0024
CTGCGGGGGA | 1.03 ± 0.037
CTGCGGGTTA | 1.01 ± 0.015
CTGCGTCTAA | 1.03 ± 0.027
CTGCGTGATG | 1.03 ± 0.011

Sequence | switch fluorescence ratio
CTGCTAGGCT | 1.01 ± 0.028
CTGCTTGGGA | 1.012 ± 0.0033
CTGGAATGTG | 1.003 ± 0.01
CTGGACCTTG | 0.977 ± 0.026
CTGGACGCTG | 1.01 ± 0.017
CTGGAGCGCT | 1.22 ± 0.054
CTGGATCCTT | 1.05 ± 0.017
CTGGATGTTA | 0.999 ± 0.024
CTGGCACAGA | 0.988 ± 0.019
CTGGCACTGG | 1.016 ± 0.0056
CTGGCAGGGC | 1.07 ± 0.016
CTGGCATGGA | 1.01 ± 0.021
CTGGCCGGGC | 1.03 ± 0.022
CTGGCGACAC | 1.39 ± 0.14
CTGGCTACTA | 1.03 ± 0.031
CTGGCTAGAG | 0.973 ± 0.018
CTGGCTATTG | 1.022 ± 0.0028
CTGGGACGTG | 0.967 ± 0.028
CTGGGAGGGT | 0.9977 ± 0.0012
CTGGGCCCGG | 1.16 ± 0.27
CTGGGCCGTC | 1.01 ± 0.021
CTGGGCGGTG | 0.9982 ± 0.0052
CTGGGGAGCG | 0.954 ± 0.034
CTGGGGATCG | 1.02 ± 0.043
CTGGGGCGCT | 1.028 ± 0.0032
CTGGGGCGGA | 0.983 ± 0.052

Sequence | switch fluorescence ratio
CTGGGGCGGG | 0.996 ± 0.057
CTGGGGCGTT | 0.983 ± 0.0034
CTGGGGGAAC | 1.004 ± 0.0049
CTGGGGGCCG | 0.979 ± 0.054
CTGGGGGGTC | 1.24 ± 0.41
CTGGGGTTGT | 1.02 ± 0.012
CTGGGTAGAC | 1.08 ± 0.011
CTGGGTGTTC | 1.05 ± 0.035
CTGGGTTTGG | 1 ± 0.025
CTGGTAAAGA | 0.984 ± 0.015
CTGGTAATTT | 1.02 ± 0.079
CTGGTATACG | 1.06 ± 0.055
CTGGTATAGG | 0.977 ± 0.028
CTGGTATATC | 1.063 ± 0.0067
CTGGTATGCG | 0.969 ± 0.054
CTGGTCATTT | 0.997 ± 0.069
CTGGTCCGGT | 0.994 ± 0.018
CTGGTGCGCG | 0.98 ± 0.032
CTGGTGGAGC | 0.954 ± 0.021
CTGGTGGGGG | 0.9702 ± 0.0027
CTGGTGTATT | 1.017 ± 0.0046
CTGGTTACGC | 1.003 ± 0.0057
CTGGTTACGG | 1.01 ± 0.015
CTGGTTCACC | 0.99 ± 0.013
CTGGTTCAGA | 0.994 ± 0.013
CTGGTTGATT | 0.997 ± 0.04

Sequence | switch fluorescence ratio
CTGGTTGGGA | 0.992 ± 0.013
CTGTAAAGAG | 0.99 ± 0.035
CTGTAGGGGC | 1.09 ± 0.062
CTGTATAACG | 0.998 ± 0.031
CTGTATGATC | 1 ± 0.024
CTGTATTTGG | 1 ± 0.012
CTGTATTTGT | 1.03 ± 0.019
CTGTCCGTTG | 1.01 ± 0.017
CTGTCGAGGC | 0.977 ± 0.053
CTGTCGGGTT | 1.03 ± 0.04
CTGTCTGGCT | 1.02 ± 0.016
CTGTGCAACT | 1.0489 ± 0.00058
CTGTGGATGC | 1.089 ± 0.0038
CTGTGGCAGG | 1.021 ± 0.0041
CTGTGGGCCG | 1 ± 0.02
CTGTGGGCGC | 1.01 ± 0.027
CTGTGGGGAT | 0.961 ± 0.014
CTGTGTAGCT | 1.02 ± 0.024
CTGTGTGCAG | 1.01 ± 0.034
CTGTTATTTT | 0.974 ± 0.03
CTGTTCTGGG | 1.003 ± 0.0063
CTGTTGGGAA | 1.04 ± 0.091
CTGTTGTTTG | 0.9784 ± 0.0016
CTGTTTAATG | 0.9871 ± 0.0038
CTGTTTCGAC | 1.02 ± 0.051
CTGTTTCGGG | 0.978 ± 0.029

Sequence | switch fluorescence ratio
CTGTTTGAGA | 1.02 ± 0.018
CTGTTTGCCT | 0.983 ± 0.021
CTGTTTGGGT | 0.9759 ± 0.0026
CTGTTTTGTG | 1.01 ± 0.049
CTGTTTTTGA | 0.96 ± 0.061
CTTAAAAGTA | 0.972 ± 0.018
CTTAAAATGC | 1.66 ± 0.46
CTTAATGGGG | 0.973 ± 0.024
CTTACCTGAG | 1.31 ± 0.045
CTTAGAAGAT | 0.983 ± 0.044
CTTAGCCTCA | 0.981 ± 0.034
CTTAGCCTTT | 0.983 ± 0.016
CTTAGGGAGA | 1 ± 0.035
CTTAGGGGGA | 1 ± 0.012
CTTAGGTTTG | 1 ± 0.018
CTTAGTGAAA | 0.988 ± 0.029
CTTATAGCTT | 0.987 ± 0.033
CTTATCATGT | 0.981 ± 0.034
CTTATCGGCA | 1.0825 ± 0.00095
CTTATCTCTG | 1.05 ± 0.019
CTTATTATGG | 0.975 ± 0.021
CTTCAAAGTA | 1.03 ± 0.026
CTTCATTACT | 1.08 ± 0.017
